# Experimental data: article PMC10786891, “Massively parallel profiling of RNA-targeting CRISPR-Cas13d”
# T1: EsCas13d, nuclease-dead (Eubacterium siraeum, UniProt B0MS50, R295A;H300A;R849A;H854A)
# T1 sequence: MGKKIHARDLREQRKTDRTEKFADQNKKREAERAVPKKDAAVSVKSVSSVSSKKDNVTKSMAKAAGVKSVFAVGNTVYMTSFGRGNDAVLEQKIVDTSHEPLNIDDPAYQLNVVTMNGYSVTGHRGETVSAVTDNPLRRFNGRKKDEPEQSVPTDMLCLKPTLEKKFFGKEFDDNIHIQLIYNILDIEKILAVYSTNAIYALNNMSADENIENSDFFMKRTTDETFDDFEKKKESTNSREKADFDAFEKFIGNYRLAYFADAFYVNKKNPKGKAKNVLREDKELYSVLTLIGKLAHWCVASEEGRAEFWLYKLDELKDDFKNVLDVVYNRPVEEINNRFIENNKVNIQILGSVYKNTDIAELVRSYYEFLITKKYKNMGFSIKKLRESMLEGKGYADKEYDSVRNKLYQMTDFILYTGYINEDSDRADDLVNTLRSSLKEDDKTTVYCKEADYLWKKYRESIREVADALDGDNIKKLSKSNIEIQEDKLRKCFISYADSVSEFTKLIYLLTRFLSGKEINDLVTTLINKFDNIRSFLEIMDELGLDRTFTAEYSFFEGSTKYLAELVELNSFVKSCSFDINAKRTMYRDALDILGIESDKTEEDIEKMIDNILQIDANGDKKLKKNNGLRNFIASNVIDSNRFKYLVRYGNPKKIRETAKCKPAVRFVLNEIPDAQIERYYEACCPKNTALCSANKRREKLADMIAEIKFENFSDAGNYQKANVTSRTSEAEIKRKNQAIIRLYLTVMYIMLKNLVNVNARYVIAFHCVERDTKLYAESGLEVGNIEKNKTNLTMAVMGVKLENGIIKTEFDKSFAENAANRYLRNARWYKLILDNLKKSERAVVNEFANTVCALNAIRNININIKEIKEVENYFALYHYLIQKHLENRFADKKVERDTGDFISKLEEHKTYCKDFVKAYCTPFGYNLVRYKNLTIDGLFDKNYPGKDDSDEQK
# Target: T1, EsCas13d, nuclease-dead
# Assay: crRNA (strand 1, pre-loaded); Mg2+; 40 mM Tris-HCl pH 7.5, 150 mM NaCl, 6 mM MgCl2, 1 mM DTT, 0.1% Tween-20, 0.2 mg/ml BSA; 25 C; 10 min per concentration, then washed
# Conditions: tags: His6-TwinStrep-SUMO cleaved; N-terminal SNAP kept (SNAP-Surface 488); label: 3' end held by stalled T7 RNA polymerase
row,Binder,Kd [nM]
1,"target 1 U8C,A18C (mixed) RNA 1: CACCCGUGCAAAAAUGCAGGGGUCUAAAACUGAGCGGAUAACCUCUCUAUGG RNA 2: GGGAAUGGAUCCACAUCUACGAAUUCGUACCAUCGAGAGGUUACCCGCUCACCGAGAUCGGAAGAGCACACGU",89 ± 9
2,"target 1 insA 3' of 22,insC 3' of 11 (mixed) RNA 1: CACCCGUGCAAAAAUGCAGGGGUCUAAAACUGAGCGGAUAACCUCUCUAUGG RNA 2: GGGAAUGGAUCCACAUCUACGAAUUCGUACACAUAGAGAGGUCUAUCCGCUCACCGAGAUCGGAAGAGCACACGU",60 ± 19
3,"target 1 U3A,A16G (mixed) RNA 1: CACCCGUGCAAAAAUGCAGGGGUCUAAAACUGAGCGGAUAACCUCUCUAUGG RNA 2: GGGAAUGGAUCCACAUCUACGAAUUCGUACCAUAGGGAGGUUAUCCGCACACCGAGAUCGGAAGAGCACACGU",34.3 ± 2.9
4,"target 1 A16U,C21U (mixed) RNA 1: CACCCGUGCAAAAAUGCAGGGGUCUAAAACUGAGCGGAUAACCUCUCUAUGG RNA 2: GGGAAUGGAUCCACAUCUACGAAUUCGUACUAUAGUGAGGUUAUCCGCUCACCGAGAUCGGAAGAGCACACGU",11.7 ± 1.4
5,target 1 A16C (mixed) RNA 1: CACCCGUGCAAAAAUGCAGGGGUCUAAAACUGAGCGGAUAACCUCUCUAUGG RNA 2: GGGAAUGGAUCCACAUCUACGAAUUCGUACCAUAGCGAGGUUAUCCGCUCACCGAGAUCGGAAGAGCACACGU,31 ± 2.7
6,"target 1 A1U,C22A (mixed) RNA 1: CACCCGUGCAAAAAUGCAGGGGUCUAAAACUGAGCGGAUAACCUCUCUAUGG RNA 2: GGGAAUGGAUCCACAUCUACGAAUUCGUAACAUAGAGAGGUUAUCCGCUCUCCGAGAUCGGAAGAGCACACGU",12.1 ± 0.9
7,target 1 C22A (mixed) RNA 1: CACCCGUGCAAAAAUGCAGGGGUCUAAAACUGAGCGGAUAACCUCUCUAUGG RNA 2: GGGAAUGGAUCCACAUCUACGAAUUCGUAACAUAGAGAGGUUAUCCGCUCACCGAGAUCGGAAGAGCACACGU,13.5 ± 0.7
8,"target 1 A1U,A16C (mixed) RNA 1: CACCCGUGCAAAAAUGCAGGGGUCUAAAACUGAGCGGAUAACCUCUCUAUGG RNA 2: GGGAAUGGAUCCACAUCUACGAAUUCGUACCAUAGCGAGGUUAUCCGCUCUCCGAGAUCGGAAGAGCACACGU",37 ± 4
9,"target 1 insA 3' of 12,insU 3' of 6 (mixed) RNA 1: CACCCGUGCAAAAAUGCAGGGGUCUAAAACUGAGCGGAUAACCUCUCUAUGG RNA 2: GGGAAUGGAUCCACAUCUACGAAUUCGUACCAUAGAGAGGAUUAUCCUGCUCACCGAGAUCGGAAGAGCACACGU",64 ± 14
10,"target 1 G12A,A14G (mixed) RNA 1: CACCCGUGCAAAAAUGCAGGGGUCUAAAACUGAGCGGAUAACCUCUCUAUGG RNA 2: GGGAAUGGAUCCACAUCUACGAAUUCGUACCAUAGAGGGAUUAUCCGCUCACCGAGAUCGGAAGAGCACACGU",41 ± 6
11,"target 1 insU 3' of 22,insA 3' of 8 (mixed) RNA 1: CACCCGUGCAAAAAUGCAGGGGUCUAAAACUGAGCGGAUAACCUCUCUAUGG RNA 2: GGGAAUGGAUCCACAUCUACGAAUUCGUACUCAUAGAGAGGUUAUACCGCUCACCGAGAUCGGAAGAGCACACGU",58 ± 5
12,"target 1 insU 3' of 1,insC 3' of 1 (mixed) RNA 1: CACCCGUGCAAAAAUGCAGGGGUCUAAAACUGAGCGGAUAACCUCUCUAUGG RNA 2: GGGAAUGGAUCCACAUCUACGAAUUCGUACCAUAGAGAGGUUAUCCGCUCAUCCCGAGAUCGGAAGAGCACACGU",11.6 ± 0.6
13,"target 1 C2U,C6U (mixed) RNA 1: CACCCGUGCAAAAAUGCAGGGGUCUAAAACUGAGCGGAUAACCUCUCUAUGG RNA 2: GGGAAUGGAUCCACAUCUACGAAUUCGUACCAUAGAGAGGUUAUCUGCUUACCGAGAUCGGAAGAGCACACGU",8.3 ± 0.6
14,"target 1 G17U,C21A (mixed) RNA 1: CACCCGUGCAAAAAUGCAGGGGUCUAAAACUGAGCGGAUAACCUCUCUAUGG RNA 2: GGGAAUGGAUCCACAUCUACGAAUUCGUACAAUAUAGAGGUUAUCCGCUCACCGAGAUCGGAAGAGCACACGU",40 ± 7
15,"target 1 insA 3' of 22,insG 3' of 18 (mixed) RNA 1: CACCCGUGCAAAAAUGCAGGGGUCUAAAACUGAGCGGAUAACCUCUCUAUGG RNA 2: GGGAAUGGAUCCACAUCUACGAAUUCGUACACAUAGGAGAGGUUAUCCGCUCACCGAGAUCGGAAGAGCACACGU",59 ± 13
16,"target 1 insG 3' of 20,insU 3' of 2 (mixed) RNA 1: CACCCGUGCAAAAAUGCAGGGGUCUAAAACUGAGCGGAUAACCUCUCUAUGG RNA 2: GGGAAUGGAUCCACAUCUACGAAUUCGUACCAGUAGAGAGGUUAUCCGCUCUACCGAGAUCGGAAGAGCACACGU",~60
17,"target 1 insU 3' of 1,insG 3' of 1 (mixed) RNA 1: CACCCGUGCAAAAAUGCAGGGGUCUAAAACUGAGCGGAUAACCUCUCUAUGG RNA 2: GGGAAUGGAUCCACAUCUACGAAUUCGUACCAUAGAGAGGUUAUCCGCUCAUGCCGAGAUCGGAAGAGCACACGU",11.6 ± 1
18,"target 1 G12U,U19A (mixed) RNA 1: CACCCGUGCAAAAAUGCAGGGGUCUAAAACUGAGCGGAUAACCUCUCUAUGG RNA 2: GGGAAUGGAUCCACAUCUACGAAUUCGUACCAAAGAGAGUUUAUCCGCUCACCGAGAUCGGAAGAGCACACGU",52 ± 10
19,"target 1 C6A,G15A (mixed) RNA 1: CACCCGUGCAAAAAUGCAGGGGUCUAAAACUGAGCGGAUAACCUCUCUAUGG RNA 2: GGGAAUGGAUCCACAUCUACGAAUUCGUACCAUAGAAAGGUUAUCAGCUCACCGAGAUCGGAAGAGCACACGU",11.9 ± 0.5
20,"target 1 insC 3' of 22,insA 3' of 21 (mixed) RNA 1: CACCCGUGCAAAAAUGCAGGGGUCUAAAACUGAGCGGAUAACCUCUCUAUGG RNA 2: GGGAAUGGAUCCACAUCUACGAAUUCGUACCCAAUAGAGAGGUUAUCCGCUCACCGAGAUCGGAAGAGCACACGU",20.7 ± 2.3
21,"target 1 insA 3' of 12,insA 3' of 10 (mixed) RNA 1: CACCCGUGCAAAAAUGCAGGGGUCUAAAACUGAGCGGAUAACCUCUCUAUGG RNA 2: GGGAAUGGAUCCACAUCUACGAAUUCGUACCAUAGAGAGGAUUAAUCCGCUCACCGAGAUCGGAAGAGCACACGU",32 ± 7
22,"target 1 U8C,A16C (mixed) RNA 1: CACCCGUGCAAAAAUGCAGGGGUCUAAAACUGAGCGGAUAACCUCUCUAUGG RNA 2: GGGAAUGGAUCCACAUCUACGAAUUCGUACCAUAGCGAGGUUACCCGCUCACCGAGAUCGGAAGAGCACACGU",77 ± 5
23,"target 1 U3A,C4G (mixed) RNA 1: CACCCGUGCAAAAAUGCAGGGGUCUAAAACUGAGCGGAUAACCUCUCUAUGG RNA 2: GGGAAUGGAUCCACAUCUACGAAUUCGUACCAUAGAGAGGUUAUCCGGACACCGAGAUCGGAAGAGCACACGU",5.74 ± 0.33
24,"target 1 A1G,A16C (mixed) RNA 1: CACCCGUGCAAAAAUGCAGGGGUCUAAAACUGAGCGGAUAACCUCUCUAUGG RNA 2: GGGAAUGGAUCCACAUCUACGAAUUCGUACCAUAGCGAGGUUAUCCGCUCGCCGAGAUCGGAAGAGCACACGU",36 ± 4
25,target 1 complement block 4-8 (mixed) RNA 1: CACCCGUGCAAAAAUGCAGGGGUCUAAAACUGAGCGGAUAACCUCUCUAUGG RNA 2: GGGAAUGGAUCCACAUCUACGAAUUCGUACCAUAGAGAGGUUAAGGCGUCACCGAGAUCGGAAGAGCACACGU,9.57 ± 0.27
26,"target 1 del12,del13 (mixed) RNA 1: CACCCGUGCAAAAAUGCAGGGGUCUAAAACUGAGCGGAUAACCUCUCUAUGG RNA 2: GGGAAUGGAUCCACAUCUACGAAUUCGUACCAUAGAGAUUAUCCGCUCACCGAGAUCGGAAGAGCACACGU",18.6 ± 1.8
27,"target 1 insG 3' of 22,insG 3' of 1 (mixed) RNA 1: CACCCGUGCAAAAAUGCAGGGGUCUAAAACUGAGCGGAUAACCUCUCUAUGG RNA 2: GGGAAUGGAUCCACAUCUACGAAUUCGUACGCAUAGAGAGGUUAUCCGCUCAGCCGAGAUCGGAAGAGCACACGU",26.6 ± 2.1
28,"target 1 insG 3' of 22,insU 3' of 1 (mixed) RNA 1: CACCCGUGCAAAAAUGCAGGGGUCUAAAACUGAGCGGAUAACCUCUCUAUGG RNA 2: GGGAAUGGAUCCACAUCUACGAAUUCGUACGCAUAGAGAGGUUAUCCGCUCAUCCGAGAUCGGAAGAGCACACGU",31 ± 4
